Changes are numbered by the printed parent chain. Like-named read-outs stand apart in the source and are kept apart here. One block for each binder: values may come before it.
Key:
[1] = target: T1, human PD-L1 (construct not stated) (human, UniProt Q9NZQ7 19-239, limits assumed); assay: SPR Biacore, capture method
T1 construct: also called B7-H1 (PD-L1); PD-L1 protein
Method: (§1) The binding affinities of bispecific antibodies PD-L1 and LAG3 of the bispecific antibodies (BsAb; 147xH12, 147H3807xB6 and B6x147H3807) prepared in Example 3 to PD-L1 protein and human LAG3 protein were tested with BIACORE™ using a capture method.

[2] = target: T2, human LAG3 (construct not stated) (human, UniProt P18627 23-450, limits assumed); assay: SPR Biacore, capture method
T2 construct: also called human LAG3 protein; antigen
T2 sequence (looked up): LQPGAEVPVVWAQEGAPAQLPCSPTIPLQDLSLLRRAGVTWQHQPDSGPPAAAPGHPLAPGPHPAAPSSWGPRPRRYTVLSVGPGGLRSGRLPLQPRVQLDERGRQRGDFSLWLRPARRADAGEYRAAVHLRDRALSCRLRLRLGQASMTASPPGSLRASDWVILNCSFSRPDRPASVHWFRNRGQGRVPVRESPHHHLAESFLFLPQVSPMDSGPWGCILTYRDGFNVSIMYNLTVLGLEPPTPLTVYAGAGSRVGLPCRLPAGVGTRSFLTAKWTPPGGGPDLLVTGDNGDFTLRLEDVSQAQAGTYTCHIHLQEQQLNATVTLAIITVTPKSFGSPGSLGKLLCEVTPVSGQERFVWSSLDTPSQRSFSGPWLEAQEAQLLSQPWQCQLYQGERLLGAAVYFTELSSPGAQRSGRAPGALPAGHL
Method: as §1

human PD-L1-Fc protein [3] = target: T3, human PD-L1-Fc protein (human, UniProt Q9NZQ7 19-239); assay: ELISA on coated human PD-L1-Fc; EC50 table has no unit, x axis Ab(nM)
T3 construct: Coated on ELISA plates; also called huPD-L1; not shown: Fc part
T3 sequence (Q9NZQ7 19-239 limits assumed): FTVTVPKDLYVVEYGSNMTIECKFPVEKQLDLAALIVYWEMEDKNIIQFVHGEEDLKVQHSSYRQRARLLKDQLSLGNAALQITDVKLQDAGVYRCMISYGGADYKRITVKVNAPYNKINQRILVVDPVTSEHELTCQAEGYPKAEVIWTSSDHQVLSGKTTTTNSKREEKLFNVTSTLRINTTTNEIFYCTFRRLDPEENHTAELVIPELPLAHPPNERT
Method: (§2) To evaluate the antigen binding activity, the humanized antibodies were subjected to ELISA test. Briefly, microtiter plates were coated with human PD-L1-Fc protein at 0.1 μg/ml in PBS, 100 μl/well at 4° C. overnight, then blocked with 100 μl/well of 5% BSA. Five-fold dilutions of humanized antibodies starting from 10 μg/ml were added to each well and incubated for 1-2 hours at RT. The plates were washed with PBS/Tween and then incubate with […] antibody conjugated with Horse Radish Peroxidase (HRP) for 1 hour at RT. After washing, the plates were developed with TMB substrate and analyzed by spectrophotometer at OD 450-630 nm.

[4] = target: T1, human PD-L1 (construct not stated); assay: BLI Octet Red 96, affinity ranking
Description: To explore the binding kinetics of the humanized antibody, this example performed the affinity ranking by using Octet Red 96.

[5] = target: T4, human PD-L1 expressed on mammalian cells (human, UniProt Q9NZQ7 19-290); assay: flow cytometry (MFI) on PDL1-CHOK1 cells; EC50 table has no unit, x axis Antibodies(nM)
T4 construct: whole, on cells; also called PDL1-CHOK1 cells; PDL1-Raji cells
T4 sequence (Q9NZQ7 19-290): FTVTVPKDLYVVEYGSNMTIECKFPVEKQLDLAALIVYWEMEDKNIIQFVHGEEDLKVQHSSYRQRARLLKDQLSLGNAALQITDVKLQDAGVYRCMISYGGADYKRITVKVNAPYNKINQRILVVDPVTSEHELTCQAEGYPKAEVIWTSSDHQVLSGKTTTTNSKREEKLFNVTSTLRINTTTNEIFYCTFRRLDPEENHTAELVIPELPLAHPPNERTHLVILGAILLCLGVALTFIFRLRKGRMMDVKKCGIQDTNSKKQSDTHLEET
Method: (§3) To evaluate the antigen binding property, the humanized antibodies were analyzed for its binding to mammalian expressed PD-L1 by FACS. Briefly, PDL1-CHOK1 cells were firstly incubated with 5-fold serious diluted humanized antibodies starting at 2 μg/ml at RT for 1 hour. After wash by FACS buffer (PBS with 2% FBS), the alexa 488-anti-human IgG antibody was added to each well and incubated at RT for 1 hour. The MFI of Alexa 488 was evaluated by FACSAriaIII.

[6] = target: T4, human PD-L1 expressed on mammalian cells; assay: FACS receptor blocking on PDL1-CHOK1 cells, competitor Bio-PD1 (30 µg/ml)
Method: To evaluate the blocking effect of humanized antibodies on human PD-L1 expressed on mammalian cells to bind to its receptor PD-1, the FACS-based receptor blocking assay was employed. Briefly, PDL1-CHOK1 cells were firstly incubated with 3-fold serious diluted HL1210-3 mouse mAb starting at 20 μg/ml at RT for 1 hour. After wash by FACS buffer (PBS with 2% FBS), the biotin-labeled huPD-1 were added to each well and incubated at RT for 1 hour. Then, the Streptavidin-PE was added to each well for 0.5 hour post twice wash with FACS buffer. The mean florescence intensity (MFI) of PE was evaluated by FACSAriaIII.

[7] = target: T4, human PD-L1 expressed on mammalian cells; assay: flow cytometry (MFI) on PDL1-CHOK1 cells; EC50 table has no unit, x axis Antibodies(nM); remark: listed apart in the source
Method: as §3

[8] = target: T5, human PD-L1-his taq protein (human, UniProt Q9NZQ7 19-239, limits assumed); assay: SPR Biacore T200, antibody captured, PD-L1-his injected
T5 construct: also called recombinant PD-L1 protein; recombinant human PD-L1; not shown: his tag
T5 sequence (Q9NZQ7 19-239 limits assumed): as the sequence (Q9NZQ7 19-239 limits assumed) above
In short: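 HL1210-3 mouse mAb was captured via anti-mouse Fc antibody on a CM5 chip, then serially diluted PD-L1-his was injected for 3 min […]. Dissociation was followed for 900 s.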

human PD-L1-Fc protein [9] = target: T3, human PD-L1-Fc protein; assay: ELISA on coated human PD-L1-Fc; EC50 table has no unit, x axis Ab(nM); remark: listed apart in the source
Method: as §2

human PD-L1-Fc protein [10] = target: T3, human PD-L1-Fc protein; assay: as above; remark: listed apart in the source
Method: as §2

[11] = target: T4, human PD-L1 expressed on mammalian cells; assay: flow cytometry (MFI) on PDL1-CHOK1 cells; EC50 table has no unit, x axis Antibodies(nM); remark: listed apart in the source
Method: as §3

human PD-L1-Fc protein [12] = target: T3, human PD-L1-Fc protein; assay: ELISA on coated human PD-L1-Fc; EC50 table has no unit, x axis Ab(nM); remark: listed apart in the source
Method: as §2

human PD-L1-Fc protein [13] = target: T3, human PD-L1-Fc protein; assay: ELISA on coated human PD-L1-Fc, panel PD-L1
Description: To evaluate the binding activity to PD-L1 and LAG3 of the bispecific antibodies (BsAb; H12x147 and 147xH12) prepared in Example 3, the BsAb were subjected to ELISA test.

T1 sequence (Q9NZQ7 19-239 limits assumed): as above

B1: 147xH12 (bispecific antibody, human IgG4 S228P, kappa)
heavy: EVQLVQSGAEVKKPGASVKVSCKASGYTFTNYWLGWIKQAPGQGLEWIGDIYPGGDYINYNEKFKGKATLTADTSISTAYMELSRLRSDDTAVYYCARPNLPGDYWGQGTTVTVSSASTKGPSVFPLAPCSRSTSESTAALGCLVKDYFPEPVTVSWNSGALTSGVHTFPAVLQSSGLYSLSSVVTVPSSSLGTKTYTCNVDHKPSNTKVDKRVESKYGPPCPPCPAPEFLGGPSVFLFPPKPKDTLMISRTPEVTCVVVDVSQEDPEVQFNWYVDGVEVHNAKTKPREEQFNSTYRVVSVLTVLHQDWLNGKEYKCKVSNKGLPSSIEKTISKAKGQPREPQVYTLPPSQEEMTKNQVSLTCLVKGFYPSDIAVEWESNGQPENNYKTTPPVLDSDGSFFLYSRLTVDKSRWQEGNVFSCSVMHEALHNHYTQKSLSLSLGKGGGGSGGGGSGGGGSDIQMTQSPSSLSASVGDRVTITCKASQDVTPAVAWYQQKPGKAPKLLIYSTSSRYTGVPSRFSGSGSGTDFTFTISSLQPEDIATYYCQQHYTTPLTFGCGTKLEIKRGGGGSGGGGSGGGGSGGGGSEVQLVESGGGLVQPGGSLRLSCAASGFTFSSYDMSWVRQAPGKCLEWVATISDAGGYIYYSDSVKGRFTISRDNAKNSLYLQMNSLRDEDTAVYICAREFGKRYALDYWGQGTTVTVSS
light: DIVMTQSPLSLPVTPGEPASISCRSSKSLLHSNGITYLYWYLQKPGQSPQLLIYQVSNLASGVPDRFSGSGSGTDFTLKISRVEAEDVGVYYCAQNLELPWTFGGGTKVEIKRTVAAPSVFIFPPSDEQLKSGTASVVCLLNNFYPREAKVQWKVDNALQSGNSQESVTEQDSKDSTYSLSSTLTLSKADYEKHKVYACEVTHQGLSSPVTKSFNRGEC
notes: also called A3L1
- Kd [1]: 27.4 nM
- Kd [2]: 13.5 nM

B2: 147(H3807)xB6 (bispecific antibody, human IgG4 S228P, kappa)
heavy: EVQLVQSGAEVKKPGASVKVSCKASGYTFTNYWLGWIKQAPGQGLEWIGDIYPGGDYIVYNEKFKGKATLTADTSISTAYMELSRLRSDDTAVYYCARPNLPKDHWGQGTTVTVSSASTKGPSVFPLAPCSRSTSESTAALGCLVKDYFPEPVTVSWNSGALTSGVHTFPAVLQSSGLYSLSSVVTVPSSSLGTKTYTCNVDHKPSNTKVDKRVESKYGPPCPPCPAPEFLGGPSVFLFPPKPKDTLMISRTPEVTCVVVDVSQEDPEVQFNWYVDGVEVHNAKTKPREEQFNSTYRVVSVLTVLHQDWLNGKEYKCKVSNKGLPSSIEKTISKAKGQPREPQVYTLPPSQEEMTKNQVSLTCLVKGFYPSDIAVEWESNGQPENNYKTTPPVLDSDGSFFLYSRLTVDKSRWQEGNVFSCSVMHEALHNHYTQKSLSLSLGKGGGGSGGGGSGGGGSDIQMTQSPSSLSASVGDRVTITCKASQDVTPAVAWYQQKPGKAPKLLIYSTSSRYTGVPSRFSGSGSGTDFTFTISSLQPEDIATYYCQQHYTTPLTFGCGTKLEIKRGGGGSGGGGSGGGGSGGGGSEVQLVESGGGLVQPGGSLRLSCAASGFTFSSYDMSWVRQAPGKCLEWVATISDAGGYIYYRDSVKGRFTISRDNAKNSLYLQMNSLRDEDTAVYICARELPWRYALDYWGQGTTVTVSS
light: B1 light with N33Q, N96Y
- Kd [1]: 5.94 nM
- Kd [2]: 1.63 nM

B3: Hu1210-1 (antibody, V domains shown)
VH: EVQLVESGGGLVKPGGSLRLSCAASGFTFSSYDMSWVRQAPGKGLEWVSTISDGGGYIYYSDSVKGRFTISRDNAKNSLYLQMNSLRAEDTAVYYCAREFGKRYALDYWGQGTTVTVSS
VL: DIQMTQSPSSLSASVGDRVTITCKASQDVTPAVAWYQQKPGKAPKLLIYSTSSRYTGVPSRFSGSGSGTDFTFTISSLQPEDIATYYCQQHYTTPLTFGQGTKLEIK
notes: Hu1210 VH.1 x Vk.1
- EC50 (human PD-L1-Fc protein [3]): 0.167 nM
- Kd [4]: 4.25 nM
- koff [4]: 0.000302 s⁻¹
- kon [4]: 71000 M⁻¹ s⁻¹
- EC50 [5]: 2.31 nM

B8: Hu1210-13 (antibody, V domains shown)
VH: B3 VH with V5L, K13Q, A75S, S78T
VL: B3 VL
notes: Hu1210 VH.3 x Vk.1; human gamma 1 / kappa constant domains
- EC50 (human PD-L1-Fc protein [10]): 0.187 nM
- Kd [4]: 4.36 nM
- koff [4]: 0.000366 s⁻¹
- kon [4]: 83800 M⁻¹ s⁻¹
- EC50 [11]: 1.57 nM

B9: Hu1210-5 (antibody, V domains shown)
VH: B3 VH with V37I, S49A
VL: B3 VL
notes: Hu1210 VH.2a x Vk.1; human gamma 1 / kappa constant domains
- EC50 (human PD-L1-Fc protein [3]): 0.193 nM
- Kd [4]: 4.83 nM
- koff [4]: 0.000383 s⁻¹
- kon [4]: 79300 M⁻¹ s⁻¹
- EC50 [5]: 1.43 nM

B10: Hu1210-4 (antibody, V domains shown)
VH: B3 VH with V37I
VL: B3 VL
notes: Hu1210 VH.2 x Vk.1; human gamma 1 / kappa constant domains
- EC50 (human PD-L1-Fc protein [3]): 0.184 nM
- Kd [4]: 7.68 nM
- koff [4]: 0.000546 s⁻¹
- kon [4]: 71200 M⁻¹ s⁻¹
- EC50 [5]: 2.12 nM

B12: Hu1210-15 (antibody, V domains shown)
VH: B3 VH with K13Q, A88D
VL: B3 VL
notes: Hu1210 VH.4 x Vk.1; human gamma 1 / kappa constant domains
- EC50 (human PD-L1-Fc protein [10]): 0.187 nM
- Kd [4]: 4.45 nM
- koff [4]: 0.00035 s⁻¹
- kon [4]: 78700 M⁻¹ s⁻¹
- EC50 [11]: 2.04 nM

B14: H12x147(H3807) (bispecific antibody, human IgG1, kappa, N297A)
heavy chain of H12 (IgG) - linker - scFv of 147(H3807) (VL - linker - VH): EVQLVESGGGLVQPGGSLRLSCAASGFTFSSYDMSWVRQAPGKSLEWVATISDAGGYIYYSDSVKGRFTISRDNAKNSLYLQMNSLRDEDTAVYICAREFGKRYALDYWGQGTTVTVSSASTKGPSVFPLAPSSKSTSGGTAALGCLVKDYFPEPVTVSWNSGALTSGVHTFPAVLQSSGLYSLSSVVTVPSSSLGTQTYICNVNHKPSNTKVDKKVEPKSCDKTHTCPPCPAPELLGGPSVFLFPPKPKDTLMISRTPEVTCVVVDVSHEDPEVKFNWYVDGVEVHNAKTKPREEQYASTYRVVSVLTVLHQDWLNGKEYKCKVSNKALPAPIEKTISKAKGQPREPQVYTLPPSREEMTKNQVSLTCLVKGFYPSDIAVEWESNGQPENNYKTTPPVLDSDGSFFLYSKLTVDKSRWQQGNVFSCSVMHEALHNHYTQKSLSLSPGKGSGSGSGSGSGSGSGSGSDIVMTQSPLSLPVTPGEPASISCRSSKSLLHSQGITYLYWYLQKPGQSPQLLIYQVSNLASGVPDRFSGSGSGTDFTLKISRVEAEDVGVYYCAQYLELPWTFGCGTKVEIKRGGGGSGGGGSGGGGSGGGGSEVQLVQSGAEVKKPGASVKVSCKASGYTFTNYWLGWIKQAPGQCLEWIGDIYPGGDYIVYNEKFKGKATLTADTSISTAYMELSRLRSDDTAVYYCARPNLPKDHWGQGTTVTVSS
light chain of H12: DIQMTQSPSSLSASVGDRVTITCKASQDVTPAVAWYQQKPGKAPKLLIYSTSSRYTGVPSRFSGSGSGTDFTFTISSLQPEDIATYYCQQHYTTPLTFGQGTKLEIKRTVAAPSVFIFPPSDEQLKSGTASVVCLLNNFYPREAKVQWKVDNALQSGNSQESVTEQDSKDSTYSLSSTLTLSKADYEKHKVYACEVTHQGLSSPVTKSFNRGEC
- EC50 (read off the curve) (human PD-L1-Fc protein [13]): ~1 nM

B15: B6x147(H3807) (bispecific antibody, human IgG1, kappa, N297A)
heavy: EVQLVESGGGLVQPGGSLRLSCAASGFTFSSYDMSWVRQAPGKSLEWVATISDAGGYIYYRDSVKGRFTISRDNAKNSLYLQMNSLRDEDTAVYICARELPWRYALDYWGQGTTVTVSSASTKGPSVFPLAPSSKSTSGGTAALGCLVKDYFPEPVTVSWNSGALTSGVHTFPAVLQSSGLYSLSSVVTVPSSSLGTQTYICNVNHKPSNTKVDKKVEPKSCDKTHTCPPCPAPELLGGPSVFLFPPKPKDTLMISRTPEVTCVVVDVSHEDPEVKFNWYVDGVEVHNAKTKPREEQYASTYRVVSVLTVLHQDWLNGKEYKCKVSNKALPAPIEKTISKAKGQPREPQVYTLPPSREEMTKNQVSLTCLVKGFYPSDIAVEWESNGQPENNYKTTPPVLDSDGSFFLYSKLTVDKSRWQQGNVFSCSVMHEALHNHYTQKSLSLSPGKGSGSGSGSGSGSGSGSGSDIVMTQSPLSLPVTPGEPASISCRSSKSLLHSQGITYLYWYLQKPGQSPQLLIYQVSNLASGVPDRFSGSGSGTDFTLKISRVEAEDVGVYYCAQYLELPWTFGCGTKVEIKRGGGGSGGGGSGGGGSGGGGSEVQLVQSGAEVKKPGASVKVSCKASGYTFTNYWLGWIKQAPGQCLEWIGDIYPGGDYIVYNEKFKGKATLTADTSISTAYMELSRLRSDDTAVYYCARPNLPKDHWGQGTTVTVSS
light: B14 light chain of H12
- Kd [1]: 1.18 nM
- Kd [2]: 8.87 nM
- EC50 (read off the curve) (human PD-L1-Fc protein [13]): ~0.3 nM

Continued, values first:

- TOP [6]: 80.9
- EC50 [7]: 1.23 nM
- Kd [4]: 2.2 nM
- koff [4]: 0.00018 s⁻¹
- kon [4]: 81700 M⁻¹ s⁻¹
- Kd [8]: 0.193 nM
- koff [8]: 2.13e-05 s⁻¹
- kon [8]: 110000 M⁻¹ s⁻¹
- EC50 (human PD-L1-Fc protein [9]): 0.208 nM
B4: Hu1210-17 (antibody, V domains shown)
VH: B3 VH with K13Q, G44S, S49A, A88D, Y95I
VL: B3 VL
notes: Hu1210 VH.4b x Vk.1; human gamma 1 / kappa constant domains

- TOP [6]: 84.3
- EC50 (human PD-L1-Fc protein [3]): 0.186 nM
- Kd [4]: 2.64 nM
- koff [4]: 0.000228 s⁻¹
- kon [4]: 86200 M⁻¹ s⁻¹
- EC50 [5]: 1.37 nM
B5: Hu1210-3 (antibody, V domains shown)
VH: B3 VH with G44S, S49A, Y95I
VL: B3 VL
notes: Hu1210 VH.1b x Vk.1; human gamma 1 / kappa constant domains

- EC50 (human PD-L1-Fc protein [3]): 0.168 nM
- Kd [4]: 3.23 nM
- koff [4]: 0.000251 s⁻¹
- kon [4]: 77800 M⁻¹ s⁻¹
- EC50 [5]: 1.44 nM
B6: Hu1210-2 (antibody, V domains shown)
VH: B3 VH with S49A
VL: B3 VL
notes: Hu1210 VH.1a x Vk.1; human gamma 1 / kappa constant domains

- TOP [6]: 88
- EC50 (human PD-L1-Fc protein [10]): 0.179 nM
- Kd [4]: 3.14 nM
- koff [4]: 0.000264 s⁻¹
- kon [4]: 84100 M⁻¹ s⁻¹
- Kd [8]: 0.672 nM
- koff [8]: 6.7e-05 s⁻¹
- kon [8]: 99800 M⁻¹ s⁻¹
- EC50 [11]: 1.41 nM
B7: Hu1210-16 (antibody, V domains shown)
VH: B3 VH with K13Q, S49A, A88D
VL: B3 VL
notes: Hu1210 VH.4a x Vk.1; human gamma 1 / kappa constant domains

- TOP [6]: 79.6
- EC50 (human PD-L1-Fc protein [10]): 0.163 nM
- Kd [4]: 2.34 nM
- koff [4]: 0.000197 s⁻¹
- kon [4]: 84100 M⁻¹ s⁻¹
- Kd [8]: 0.435 nM
- koff [8]: 5.29e-05 s⁻¹
- kon [8]: 122000 M⁻¹ s⁻¹
- EC50 [11]: 1.46 nM
B11: Hu1210-14 (antibody, V domains shown)
VH: B3 VH with V5L, K13Q, G44S, S49A, A75S, S78T, Y95I
VL: B3 VL
notes: Hu1210 VH.3a x Vk.1; human gamma 1 / kappa constant domains

- TOP [6]: 86.3
- EC50 (human PD-L1-Fc protein [12]): 0.186 nM
- Kd [4]: 1.64 nM
- koff [4]: 0.000127 s⁻¹
- kon [4]: 77200 M⁻¹ s⁻¹
- EC50 [5]: 1.23 nM
- Kd [8]: 0.767 nM
- koff [8]: 7.17e-05 s⁻¹
- kon [8]: 93500 M⁻¹ s⁻¹
B13: Hu1210-8 (antibody, V domains shown)
VH: B3 VH with S49A
VL: B3 VL with A43S
notes: Hu1210 VH.1a x Vk.1a; human gamma 1 / kappa constant domains

Reference: patent publication US20220363763A1 (ABL BIO, published 2022)
